Literature values in publication PMC3343272.

Biological target: Nonmuscle myosin IIA M32 1907-1938 (Homo sapiens) (UniProt P35579)
Assay: kinetic assay

S100A4, sequence (P26447 2-101): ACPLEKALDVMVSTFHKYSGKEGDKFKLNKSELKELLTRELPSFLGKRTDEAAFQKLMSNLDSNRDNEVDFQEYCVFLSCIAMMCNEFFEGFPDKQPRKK
Nonmuscle myosin IIA M32 1907-1938 (Homo sapiens), sequence (P35579 1907-1938): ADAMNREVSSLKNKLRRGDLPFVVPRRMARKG

For S100A4 (from UniProt P26447), the Kd is given as 3000 nM.
